The target of data set [1] is T1, ApOrc1 (Orc1-1) (Aeropyrum pernix, UniProt Q9YEV6 1-395).
T1 sequence: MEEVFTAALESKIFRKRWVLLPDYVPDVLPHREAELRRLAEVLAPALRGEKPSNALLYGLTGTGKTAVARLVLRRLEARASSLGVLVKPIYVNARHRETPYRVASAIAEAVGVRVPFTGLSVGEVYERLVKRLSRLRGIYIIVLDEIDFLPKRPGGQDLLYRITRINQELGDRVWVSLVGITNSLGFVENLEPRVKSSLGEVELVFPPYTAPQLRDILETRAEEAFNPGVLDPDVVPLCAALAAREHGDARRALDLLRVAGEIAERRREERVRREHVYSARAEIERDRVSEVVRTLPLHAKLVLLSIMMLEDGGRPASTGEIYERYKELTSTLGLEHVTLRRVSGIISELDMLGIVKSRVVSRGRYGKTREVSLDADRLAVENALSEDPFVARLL
The data set is described as follows: SPR; highest response; SPR: HBS-EP + 10 mM MgCl2, 2 mM ATP; BLI (room temperature) and MST: EDBS (25 mM Tris-HCl pH 8, 4% sucrose, 4 mM DTT, 80 ug/mL BSA, 10 mM Mg(OAc)2, 2 mM [truncated]); EMSA: 40 mM HEPES-KOH pH 8, 25 mM [truncated], 5% PAGE in TBE. The following applies: protein: recombinant; label: 5' biotin. In general terms: Surface plasmon resonance follows binding to a sensor surface in real time, without labels.

For data set [2], the target named is T1, ApOrc1 (Orc1-1). The data set is described as follows: SPR; ATP, Mg2+; SPR: HBS-EP + 10 mM MgCl2, 2 mM ATP; BLI (room temperature) and MST: EDBS (25 mM Tris-HCl pH 8, 4% sucrose, 4 mM DTT, 80 ug/mL BSA, 10 mM Mg(OAc)2, 2 mM [truncated]); EMSA: 40 mM HEPES-KOH pH 8, 25 mM [truncated], 5% PAGE in TBE. The following applies: protein: recombinant; label: 5' biotin (BLI, SPR); fluorescent (MST).

Data set [3] has as its target T2, SSB (Escherichia coli, UniProt P0AGE0 1-178). Kind of data set: SPR; no significant difference from R bottom; SPR: HBS-EP + 10 mM MgCl2, 2 mM ATP; BLI (room temperature) and MST: EDBS (25 mM Tris-HCl pH 8, 4% sucrose, 4 mM DTT, 80 ug/mL BSA, 10 mM Mg(OAc)2, 2 mM [truncated]); EMSA: 40 mM HEPES-KOH pH 8, 25 mM [truncated], 5% PAGE in TBE. The following applies: chain copies: 4; label: 5' biotin (BLI, SPR); fluorescent (MST).

Data set [4] addresses T1, ApOrc1 (Orc1-1). The data set is described as follows: SPR; SPR: HBS-EP + 10 mM MgCl2, 2 mM ATP; BLI (room temperature) and MST: EDBS (25 mM Tris-HCl pH 8, 4% sucrose, 4 mM DTT, 80 ug/mL BSA, 10 mM Mg(OAc)2, 2 mM [truncated]); EMSA: 40 mM HEPES-KOH pH 8, 25 mM [truncated], 5% PAGE in TBE. The following applies: protein: recombinant; label: Biotin-14-dCTP by TdT.
Data set [5] addresses T1, ApOrc1 (Orc1-1). The data set is described as follows: BLI; among the highest; SPR: HBS-EP + 10 mM MgCl2, 2 mM ATP; BLI (room temperature) and MST: EDBS (25 mM Tris-HCl pH 8, 4% sucrose, 4 mM DTT, 80 ug/mL BSA, 10 mM Mg(OAc)2, 2 mM [truncated]); EMSA: 40 mM HEPES-KOH pH 8, 25 mM [truncated], 5% PAGE in TBE. The following applies: protein: recombinant; label: 5' biotin.
Data set [6] addresses T1, ApOrc1 (Orc1-1). Kind of data set: BLI; higher than L top; SPR: HBS-EP + 10 mM MgCl2, 2 mM ATP; BLI (room temperature) and MST: EDBS (25 mM Tris-HCl pH 8, 4% sucrose, 4 mM DTT, 80 ug/mL BSA, 10 mM Mg(OAc)2, 2 mM [truncated]); EMSA: 40 mM HEPES-KOH pH 8, 25 mM [truncated], 5% PAGE in TBE. The following applies: protein: recombinant; label: 5' biotin. (In general: Biolayer interferometry detects binding as a change in optical thickness at a sensor tip.)

Data set [7] addresses T1, ApOrc1 (Orc1-1). Kind of data set: SPR; ATP, Mg2+; SPR: HBS-EP + 10 mM MgCl2, 2 mM ATP; BLI (room temperature) and MST: EDBS (25 mM Tris-HCl pH 8, 4% sucrose, 4 mM DTT, 80 ug/mL BSA, 10 mM Mg(OAc)2, 2 mM [truncated]); EMSA: 40 mM HEPES-KOH pH 8, 25 mM [truncated], 5% PAGE in TBE. The following applies: protein: recombinant; label: 5' biotin (BLI, SPR); fluorescent (MST). The source holds these as a separate data set.

In data set [8] the target is T2, SSB. Kind of data set: SPR; no significant difference from R top; SPR: HBS-EP + 10 mM MgCl2, 2 mM ATP; BLI (room temperature) and MST: EDBS (25 mM Tris-HCl pH 8, 4% sucrose, 4 mM DTT, 80 ug/mL BSA, 10 mM Mg(OAc)2, 2 mM [truncated]); EMSA: 40 mM HEPES-KOH pH 8, 25 mM [truncated], 5% PAGE in TBE. The following applies: chain copies: 4; label: 5' biotin (BLI, SPR); fluorescent (MST).

Data set [9] concerns the target T1, ApOrc1 (Orc1-1). The data set is described as follows: MST; SPR: HBS-EP + 10 mM MgCl2, 2 mM ATP; BLI (room temperature) and MST: EDBS (25 mM Tris-HCl pH 8, 4% sucrose, 4 mM DTT, 80 ug/mL BSA, 10 mM Mg(OAc)2, 2 mM [truncated]); EMSA: 40 mM HEPES-KOH pH 8, 25 mM [truncated], 5% PAGE in TBE. The following applies: protein: recombinant; label: 5' Cy3. In general terms: Mobility shift assays separate free from complexed probe on a gel.

Here are results for nine molecules from PMC8287685, “Archaeal Orc1 protein interacts with T-rich single-stranded DNA”.

T2 sequence (P0AGE0 whole entry, the tested form may be a part): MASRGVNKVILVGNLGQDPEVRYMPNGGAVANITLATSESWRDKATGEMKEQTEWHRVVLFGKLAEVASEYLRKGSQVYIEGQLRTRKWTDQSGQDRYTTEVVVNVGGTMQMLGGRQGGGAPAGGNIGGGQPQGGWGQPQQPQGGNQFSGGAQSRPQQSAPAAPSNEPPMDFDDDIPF

Consider TGTGTCTTTGTTTGTTTCTAGCTTGATTTG (ssDNA) [R1 bottom], for which the binding result in [1] is on record as “binds”.

B1: R top (ssDNA)
DNA: CAAATCAAGCTAGAAACAAACAAAGACACACTATAATCCAGAACTGCACAGCCTGA
For B1, the binding signal in data set [2] is ~0.33 fold SPR response vs R bottom (stated as R bottom 3 times higher). The binding result in data set [3] is listed as “binds”.

B2: polyT(60) (ssDNA)
DNA: TTTTTTTTTTTTTTTTTTTTTTTTTTTTTTTTTTTTTTTTTTTTTTTTTTTTTTTTTTTT
With B2, the binding result in data set [4] is “binds”.
Consider TTTAAAACTGGGTTTTTGTATCATTATATTGGCAT (ssDNA) [L2 bottom], for which the binding result in data set [5] is listed as “binds”.

B3: polyA(60) (ssDNA)
DNA: AAAAAAAAAAAAAAAAAAAAAAAAAAAAAAAAAAAAAAAAAAAAAAAAAAAAAAAAAAAA
On to B3, for which the binding result in data set [4] is “no binding”.

B4: L bottom (ssDNA)
DNA: TTTAAAACTGGGTTTTTGTATCATTATATTGGCATTCTTCAAGAGCACTATTCGGGAGGAGTATACGCTTC
As for B4, the binding result in data set [6] is given as “binds”.

B5: R bottom (ssDNA)
DNA: TCAGGCTGTGCAGTTCTGGATTATAGTGTGTCTTTGTTTGTTTCTAGCTTGATTTG
In the case of B5, the binding signal in [7] was ~3 fold SPR response vs R top. In addition, in data set [8], the binding result is reported as “binds”.

B6: polyA(70) (ssDNA)
DNA: AAAAAAAAAAAAAAAAAAAAAAAAAAAAAAAAAAAAAAAAAAAAAAAAAAAAAAAAAAAAAAAAAAAAAA
As to B6, in [9], the binding result is on record as “no binding”.

B7: polyT(70) (ssDNA)
DNA: TTTTTTTTTTTTTTTTTTTTTTTTTTTTTTTTTTTTTTTTTTTTTTTTTTTTTTTTTTTTTTTTTTTTTT
Consider B7, for which the binding result in [9] is “binds”.
